The text below walks through data of paper PMC11969024 (2025).

The chains are these.
B1: peptide HD2 (from tick evasin EVA4) / CCL22 (biotinylated, synthetic) (parent complex)
chain 1: EEDDYTAYAPLTCYFT
chain 2: GPYGANMEDSVCCRDYVRYRLPLRVVKHFYWTSDSCPRPGVVLLTFRDKEICADPRVPWVKMILNKLSQ

The variants in this assay derive from B1.
Regarding chain 1 EEDDYTGYAPLTCYFT [chain 1 A7G], the enrichment was 0.519 log2 (difference from the parental peptide).

On to chain 1 EEDDYTAYAPLPCYFT [chain 1 T12P], for which the enrichment was 2.6 log2 (difference from the parental peptide).

Turning to chain 1 EEDDYTAYAPLACYFT [chain 1 T12A], the enrichment was -0.997 log2 (difference from the parental peptide).

Turning to chain 1 EEDDYTAYAPLYCYFT [chain 1 T12Y], the enrichment is 2.35 log2 (difference from the parental peptide).

In the case of chain 1 EEDDYTAYAPLTCYLT [chain 1 F15L], the enrichment was -0.246 log2 (difference from the parental peptide).

For the variant chain 1 EEDDYTAYAPLTCYGT [chain 1 F15G], the enrichment is -2.74 log2 (difference from the parental peptide).

chain 1 EEDDYTAYAPLTCYHT [chain 1 F15H]: the enrichment was 0.892 log2 (difference from the parental peptide).

Take chain 1 EEDDYTAYAPLTIYFT [chain 1 C13I]: the enrichment is -3.42 log2 (difference from the parental peptide).

For chain 1 EEDDYTAYAPLTHYFT [chain 1 C13H], the enrichment was -3.89 log2 (difference from the parental peptide).

Turning to chain 1 EEDDYTAYAPLTGYFT [chain 1 C13G], the enrichment is -5.34 log2 (difference from the parental peptide).

Consider chain 1 EEDDYTAYAPLTDYFT [chain 1 C13D], for which the enrichment is -7.57 log2 (difference from the parental peptide).

Take chain 1 EEDDYTAYAGLTCYFT [chain 1 P10G]: the enrichment was -7.9 log2 (difference from the parental peptide).

Turning to chain 1 EEDDYTAYAWLTCYFT [chain 1 P10W], the enrichment is -5.26 log2 (difference from the parental peptide).

chain 1 EEDDYTAYAYLTCYFT [chain 1 P10Y]: the enrichment was -6.98 log2 (difference from the parental peptide).

Turning to chain 1 EESDYTAYAPLTCYFT [chain 1 D3S], the enrichment was -4.38 log2 (difference from the parental peptide).

Consider chain 1 EEPDYTAYAPLTCYFT [chain 1 D3P], for which the enrichment was -3.61 log2 (difference from the parental peptide).

As to chain 1 EEDDWTAYAPLTCYFT [chain 1 Y5W], the enrichment was 1.1 log2 (difference from the parental peptide).

On to chain 1 EEDDITAYAPLTCYFT [chain 1 Y5I], for which the enrichment was -6.63 log2 (difference from the parental peptide).

For the variant chain 1 EEDDSTAYAPLTCYFT [chain 1 Y5S], the enrichment was -6.78 log2 (difference from the parental peptide).

As to chain 1 EEDDMTAYAPLTCYFT [chain 1 Y5M], the enrichment was -1.76 log2 (difference from the parental peptide).

Regarding chain 1 EEDDLTAYAPLTCYFT [chain 1 Y5L], the enrichment was -1.89 log2 (difference from the parental peptide).

As for chain 1 EEDDYTAYYPLTCYFT [chain 1 A9Y], the enrichment was -6.66 log2 (difference from the parental peptide).

Regarding chain 1 EEDDYTAYRPLTCYFT [chain 1 A9R], the enrichment was 0.319 log2 (difference from the parental peptide).

Turning to chain 1 EEDDYTAYEPLTCYFT [chain 1 A9E], the enrichment was -1.54 log2 (difference from the parental peptide).

With chain 1 EEDDYTAYQPLTCYFT [chain 1 A9Q], the enrichment is -2.13 log2 (difference from the parental peptide).

With chain 1 EEDLYTAYAPLTCYFT [chain 1 D4L], the enrichment is -6.02 log2 (difference from the parental peptide).

For the variant chain 1 EEDIYTAYAPLTCYFT [chain 1 D4I], the enrichment is -7.79 log2 (difference from the parental peptide).

For the variant chain 1 DEDDYTAYAPLTCYFT [chain 1 E1D], the enrichment is 2.17 log2 (difference from the parental peptide).

In the case of chain 1 SEDDYTAYAPLTCYFT [chain 1 E1S], the enrichment was -1.77 log2 (difference from the parental peptide).

Consider chain 1 MEDDYTAYAPLTCYFT [chain 1 E1M], for which the enrichment was -0.805 log2 (difference from the parental peptide).

For the variant chain 1 TEDDYTAYAPLTCYFT [chain 1 E1T], the enrichment was -2.09 log2 (difference from the parental peptide).

Regarding chain 1 EEDDYTAYAPLTCYFN [chain 1 T16N], the enrichment is 0.543 log2 (difference from the parental peptide).

Turning to chain 1 EEDDYTAYAPLTCYFP [chain 1 T16P], the enrichment was 1.71 log2 (difference from the parental peptide).

Turning to chain 1 EEDDYRAYAPLTCYFT [chain 1 T6R], the enrichment was -0.184 log2 (difference from the parental peptide).

Consider chain 1 EEDDYKAYAPLTCYFT [chain 1 T6K], for which the enrichment was -1.04 log2 (difference from the parental peptide).

As for chain 1 EEDDYVAYAPLTCYFT [chain 1 T6V], the enrichment is -4.41 log2 (difference from the parental peptide).

On to chain 1 EEDDYHAYAPLTCYFT [chain 1 T6H], for which the enrichment is -0.511 log2 (difference from the parental peptide).

On to chain 1 EEDDYYAYAPLTCYFT [chain 1 T6Y], for which the enrichment is -1.26 log2 (difference from the parental peptide).

Turning to chain 1 EEDDYPAYAPLTCYFT [chain 1 T6P], the enrichment was -4.79 log2 (difference from the parental peptide).

For chain 1 EEDDYTAYAPLTCLFT [chain 1 Y14L], the enrichment is -2.35 log2 (difference from the parental peptide).

Turning to chain 1 EEDDYTAYAPLTCTFT [chain 1 Y14T], the enrichment was 1.08 log2 (difference from the parental peptide).

As for chain 1 EEDDYTAYAPLTCWFT [chain 1 Y14W], the enrichment is -0.554 log2 (difference from the parental peptide).

With chain 1 EEDDYTAYAPLTCPFT [chain 1 Y14P], the enrichment is -3.33 log2 (difference from the parental peptide).

Take chain 1 EEDDYTAYAPLTCGFT [chain 1 Y14G]: the enrichment is -4.12 log2 (difference from the parental peptide).

With chain 1 EEDDYTASAPLTCYFT [chain 1 Y8S], the enrichment is -8.74 log2 (difference from the parental peptide).

For chain 1 EEDDYTAVAPLTCYFT [chain 1 Y8V], the enrichment was -7.55 log2 (difference from the parental peptide).

Regarding chain 1 EEDDYTAYAPRTCYFT [chain 1 L11R], the enrichment is 1.13 log2 (difference from the parental peptide).

On to chain 1 EEDDYTAYAPCTCYFT [chain 1 L11C], for which the enrichment was 0.802 log2 (difference from the parental peptide).

Consider chain 1 EEDDYTAYAPSTCYFT [chain 1 L11S], for which the enrichment was 0.482 log2 (difference from the parental peptide).

As for chain 1 EEDDYTAYAPNTCYFT [chain 1 L11N], the enrichment is -4.2 log2 (difference from the parental peptide).

In the case of chain 1 EEDDYTAYAPPTCYFT [chain 1 L11P], the enrichment was -5.29 log2 (difference from the parental peptide).

For the variant chain 1 EEDDYTAYAPGTCYFT [chain 1 L11G], the enrichment is -5.39 log2 (difference from the parental peptide).

Turning to chain 1 EEDDYTAYAPFTCYFT [chain 1 L11F], the enrichment is 0.136 log2 (difference from the parental peptide).

As for chain 1 EEDDYTAYAPATCYFT [chain 1 L11A], the enrichment is -0.478 log2 (difference from the parental peptide).

As for chain 1 EHDDYTAYAPLTCYFT [chain 1 E2H], the enrichment is -3.64 log2 (difference from the parental peptide).

With chain 1 EPDDYTAYAPLTCYFT [chain 1 E2P], the enrichment was -5.46 log2 (difference from the parental peptide).
